According to publication PMC3554631, “Structural Basis of a Histone H3 Lysine 4 Demethylase Required for Stem Elongation in Rice” (PLoS Genetics, 2013):

Tests used:
Assay type in all cases: cell-based
Details in all cases: mutant expressed transiently in tobacco cells, immunostaining of nuclei, at least 30 nuclei per transfection
H3K4me1 = test: H3K4 demethylation assay in tobacco cells of JMJ703 substitution mutants, H3K4me1
Method: (§1) The cDNA fragment of the J3NCZ region was amplified using primers FAJ3NCZ-F and FAJ3NCZ-R and then cloned into pFA121 vector modified from pBI121 (GenBank: AF485783.1), in which GUS was replaced by 2×FLAG∶2×HA tag. The pFA121-J3NCZ plasmid was transferred into Agrobacterium tumefaciens strain EHA105 cells for tobacco infection with the help of Agrobacterium cells harboring P19 plasmids. For in vivo histone demethylation assay, tobacco infection and nuclei isolation were performed as previously described. The immunostaining protocol was modified from http://sites.bio.indiana.edu/~pikaardlab. Briefly, the nucleus solution was placed on a poly-lysine coated slide, air dried, and then refixed with 4% formaldehyde in KPBS (1.28 M NaCl, 20 mM KCl, 80 mM Na2HPO4, 20 mM KH2PO4, pH7.2) containing 1% Triton X-100 for 20 min. After 3 washes with KPBS-1% Triton, slides were blocked with blocking solution (1% BSA in KPBS-1% Triton) and incubated at 37°C for 30 min. The blocking solution was washed off with KPBS-1% Triton and the slides were incubated with both anti-HA and histone méthylation specific antibodies diluted in blocking solution to 1∶300 at 4°C overnight. After washing with KPBS, slides were blocked and incubated with fluorescent-labeled antibodies at 37°C for 2 h. After washing with KPBS thrice, nuclei were stained with 5 µg/mL 4,6-diamidino-2-phenylindole (DAPI), coated with a drop of VECTASHIELD Mounting Medium (H-1000, Vector Laboratories), and then covered with a coverslip followed by confocal microscope (Leica) detection. In vitro histone demethylation assays were performed as previously described. FA-J3NCZ was purified after overexpression with Anti-FLAG M2 magnetic beads according the manufacturer's instruction (Sigma).
(§2) Supplementary file pgen.1003239.s006.tif: Figure S6 Demethylation assays for JMJ703 substitution mutants that have been produced based on the structural data. The mutant names are labeled at the top left corner of each panel. Image panels from left to right are staining by DAPI, anti-HA and anti-methylated histones, respectively. Bar = 10 µm. At least 30 nuclei that expressed JMJ703 per transfection were observed and imaged. (TIF) Click here for additional data file.

H3K4me2 = test: H3K4 demethylation assay in tobacco cells of JMJ703 substitution mutants, H3K4me2
Method: as §1, §2

H3K4me3 = test: H3K4 demethylation assay in tobacco cells of JMJ703 substitution mutants, H3K4me3
Method: as §1, §2

B1: H394A: JMJ703 substitution mutant, Fe-binding residue (protein, UniProt Q53WJ1 1-1238, looked up, variant H394A)
Lysine-specific demethylase …: MMGVTTTLNEDTEPSIPPGFGPFATLPLWGIHNDAKPAVTHSTPVQALQSIRKDSEECQPSAAVSRSDTPCSTSGTQTCRKSLRNRPPIDYSRFEHISDEDSDVEIVEKDVSSTRRRQQLPKGVLRGCAECSDCQKVIAKWNPAGARRPVLDEAPVFYPTEEEFEDTLKYIESIRPMAEPYGICRIVPPSSWKPPCLLKDKSIWEGSKFSTRVQKVDKLQNRKSSKKGRRGGMMKRRKLAESEENSATAHTQTGMQQSPERFGFEPGPEFTLQTFQKYADDFSKQYFRKDTSMDSVPSVEDIEGEYWRIVEVPTEEIEVIYGADLETGTFGSGFPKLSPETKSDAEDKYAQSGWNLNNLPRLQGSVLSFEGGDISGVLVPWVYVGMCFSSFCWAVEDHHLYSLNYMHWGAPKLWYGVPGKDAVNLESAMRKHLPELFEEQPDLLHNLVTQFSPSLLKSEGVHVYRCVQHEGEFVLTFPRAYHAGFNCGFNCAEAVNVAPIDWLPIGHNAVELYREQARKITISHDKLLLGAAREAIRAQWDILFLKRNTADNMRWKSICGADSTIFKALKARIETELVQRKTLGVPAQSRKMDAEFDSIDRECALCYYDLHLSASGCPCCPEKYACLVHAKQLCSCDWDKRFFLFRYDVNELNILADALGGKLSAIHRWGVSDLGLSLSSCVKREKVQDSKTVRRLTDGPRRSYMSQASAVSLVSSSTSNEQKDEGNKIMKIASPQTNNVCPSVEQRKSENISPLKEPCVRNELSCTTNSDSNGLQYNGGLGGHKGSAPGLPVSSSPSFSSNVATRPISTSSVSMKIVQGLVASKSCIQASSRTGDSRSLLGEHHNRSPAMIHDGTNMKSSLESSNNSCRLIASDYNATPCHSSKDQVLVTPGTNASVVTLKDSSQVHSASSQQFVRTGPWTQSASHEASSPSTSALKPSLDPPAMKNLYGGFTQGSAHPGPPSFSNQQPNDGRLQRTSESLPGVEARARGHPTVTAQPALEIHSRNGGAQKGPRIANVVHRFKCSVEPLEIGVVLSGRLWSSSQAIFPKGFRSRVKYFSIVDPIQMAYYISEILDAGMQGPLFMVKLENCPGEVFINLSPTKCWNMVRERLNMEIRRQLNMGKSNLPTLQPPGSVDGLEMFGLLSPPIVQAIWARDRDHICTEYWRSRPHVLIEDPNNRHMLSQGPPLLALRGLIQRANRDELQVLRSLMTNSNNLDDSSRQQAAHIIEEEIAKQLC
no: H3K4me1 demethylation activity (H3K4me1) | H3K4me2 demethylation activity (H3K4me2) | H3K4me3 demethylation activity (H3K4me3)

B2: H482Y: JMJ703 substitution mutant, Fe-binding residue (protein, UniProt Q53WJ1 1-1238, looked up, variant H482Y)
Lysine-specific demethylase …: MMGVTTTLNEDTEPSIPPGFGPFATLPLWGIHNDAKPAVTHSTPVQALQSIRKDSEECQPSAAVSRSDTPCSTSGTQTCRKSLRNRPPIDYSRFEHISDEDSDVEIVEKDVSSTRRRQQLPKGVLRGCAECSDCQKVIAKWNPAGARRPVLDEAPVFYPTEEEFEDTLKYIESIRPMAEPYGICRIVPPSSWKPPCLLKDKSIWEGSKFSTRVQKVDKLQNRKSSKKGRRGGMMKRRKLAESEENSATAHTQTGMQQSPERFGFEPGPEFTLQTFQKYADDFSKQYFRKDTSMDSVPSVEDIEGEYWRIVEVPTEEIEVIYGADLETGTFGSGFPKLSPETKSDAEDKYAQSGWNLNNLPRLQGSVLSFEGGDISGVLVPWVYVGMCFSSFCWHVEDHHLYSLNYMHWGAPKLWYGVPGKDAVNLESAMRKHLPELFEEQPDLLHNLVTQFSPSLLKSEGVHVYRCVQHEGEFVLTFPRAYYAGFNCGFNCAEAVNVAPIDWLPIGHNAVELYREQARKITISHDKLLLGAAREAIRAQWDILFLKRNTADNMRWKSICGADSTIFKALKARIETELVQRKTLGVPAQSRKMDAEFDSIDRECALCYYDLHLSASGCPCCPEKYACLVHAKQLCSCDWDKRFFLFRYDVNELNILADALGGKLSAIHRWGVSDLGLSLSSCVKREKVQDSKTVRRLTDGPRRSYMSQASAVSLVSSSTSNEQKDEGNKIMKIASPQTNNVCPSVEQRKSENISPLKEPCVRNELSCTTNSDSNGLQYNGGLGGHKGSAPGLPVSSSPSFSSNVATRPISTSSVSMKIVQGLVASKSCIQASSRTGDSRSLLGEHHNRSPAMIHDGTNMKSSLESSNNSCRLIASDYNATPCHSSKDQVLVTPGTNASVVTLKDSSQVHSASSQQFVRTGPWTQSASHEASSPSTSALKPSLDPPAMKNLYGGFTQGSAHPGPPSFSNQQPNDGRLQRTSESLPGVEARARGHPTVTAQPALEIHSRNGGAQKGPRIANVVHRFKCSVEPLEIGVVLSGRLWSSSQAIFPKGFRSRVKYFSIVDPIQMAYYISEILDAGMQGPLFMVKLENCPGEVFINLSPTKCWNMVRERLNMEIRRQLNMGKSNLPTLQPPGSVDGLEMFGLLSPPIVQAIWARDRDHICTEYWRSRPHVLIEDPNNRHMLSQGPPLLALRGLIQRANRDELQVLRSLMTNSNNLDDSSRQQAAHIIEEEIAKQLC
no: H3K4me1 demethylation activity (H3K4me1) | H3K4me2 demethylation activity (H3K4me2) | H3K4me3 demethylation activity (H3K4me3)

B3: W381A: JMJ703 substitution mutant, residue conserved in H3K4 demethylases (protein, UniProt Q53WJ1 1-1238, looked up, variant W381A)
Lysine-specific demethylase …: MMGVTTTLNEDTEPSIPPGFGPFATLPLWGIHNDAKPAVTHSTPVQALQSIRKDSEECQPSAAVSRSDTPCSTSGTQTCRKSLRNRPPIDYSRFEHISDEDSDVEIVEKDVSSTRRRQQLPKGVLRGCAECSDCQKVIAKWNPAGARRPVLDEAPVFYPTEEEFEDTLKYIESIRPMAEPYGICRIVPPSSWKPPCLLKDKSIWEGSKFSTRVQKVDKLQNRKSSKKGRRGGMMKRRKLAESEENSATAHTQTGMQQSPERFGFEPGPEFTLQTFQKYADDFSKQYFRKDTSMDSVPSVEDIEGEYWRIVEVPTEEIEVIYGADLETGTFGSGFPKLSPETKSDAEDKYAQSGWNLNNLPRLQGSVLSFEGGDISGVLVPAVYVGMCFSSFCWHVEDHHLYSLNYMHWGAPKLWYGVPGKDAVNLESAMRKHLPELFEEQPDLLHNLVTQFSPSLLKSEGVHVYRCVQHEGEFVLTFPRAYHAGFNCGFNCAEAVNVAPIDWLPIGHNAVELYREQARKITISHDKLLLGAAREAIRAQWDILFLKRNTADNMRWKSICGADSTIFKALKARIETELVQRKTLGVPAQSRKMDAEFDSIDRECALCYYDLHLSASGCPCCPEKYACLVHAKQLCSCDWDKRFFLFRYDVNELNILADALGGKLSAIHRWGVSDLGLSLSSCVKREKVQDSKTVRRLTDGPRRSYMSQASAVSLVSSSTSNEQKDEGNKIMKIASPQTNNVCPSVEQRKSENISPLKEPCVRNELSCTTNSDSNGLQYNGGLGGHKGSAPGLPVSSSPSFSSNVATRPISTSSVSMKIVQGLVASKSCIQASSRTGDSRSLLGEHHNRSPAMIHDGTNMKSSLESSNNSCRLIASDYNATPCHSSKDQVLVTPGTNASVVTLKDSSQVHSASSQQFVRTGPWTQSASHEASSPSTSALKPSLDPPAMKNLYGGFTQGSAHPGPPSFSNQQPNDGRLQRTSESLPGVEARARGHPTVTAQPALEIHSRNGGAQKGPRIANVVHRFKCSVEPLEIGVVLSGRLWSSSQAIFPKGFRSRVKYFSIVDPIQMAYYISEILDAGMQGPLFMVKLENCPGEVFINLSPTKCWNMVRERLNMEIRRQLNMGKSNLPTLQPPGSVDGLEMFGLLSPPIVQAIWARDRDHICTEYWRSRPHVLIEDPNNRHMLSQGPPLLALRGLIQRANRDELQVLRSLMTNSNNLDDSSRQQAAHIIEEEIAKQLC
no: H3K4me1 demethylation activity (H3K4me1) | H3K4me2 demethylation activity (H3K4me2) | H3K4me3 demethylation activity (H3K4me3)
